Results on two molecules are retold here after publication PMC10464304, “Refined read‐out: The hUHRF1 Tandem‐Tudor domain prefers binding to histone H3 tails containing K4me1 in the context of H3K9me2/3” (Protein Science : A Publication of the Protein Society, 2023).

In assay [1] the target is T1, fluorescently labeled H3 peptide carrying only K4me1 (Homo sapiens).
T1 chain: ARTKQTARKSTGGKAPRKQ
The assay can be described thus: FP. As to conditions: domain or fragment; chains chain; modification not given; K4me1 (monomethyl-lysine at 4); FITC-labeled.

Assay [2] has as its target T2, fluorescently labeled H3 peptide with K4me1 and K9me2 (Homo sapiens).
T2 chain: ARTKQTARKSTGGKAPRKQ
The assay can be described thus: FP. Particulars: domain or fragment; chains chain; modification not given; K4me1 (monomethyl-lysine at 4); K9me2 (dimethyl-lysine at 9); FITC-labeled.

Assay [3] concerns the target T3, fluorescently labeled H3 peptide with K9me2 (Homo sapiens).
T3 chain: ARTKQTARKSTGGKAPRKQ
Description: FP. As to conditions: domain or fragment; chains chain; modification not given; K9me2 (dimethyl-lysine at 9); FITC-labeled.

For assay [4], the target named is T4, fluorescently labeled H3 peptide without modification (Homo sapiens).
T4 chain: ARTKQTARKSTGGKAPRKQ
Description: FP. Particulars: domain or fragment; chains chain; modification not given; FITC-labeled.

The target in assay [5] is fluorescently labeled H3 peptide with K4me1 and K9me2. The assay can be described thus: fluorescence polarisation; fluorescence anisotropy titration; 100 nM FITC-labeled peptide in the cuvette, protein added stepwise; 23°C; 100 mM KCl, 20 mM HEPES pH 7.5, 10% v/v glycerol.

B1: GST-fused Tandem-Tudor domain (TTD) of human UHRF1, residues 126-280, wild type, Q96T88 126-280 (protein)
chain: MWDETELGLYKVNEYVDARDTNMGAWFEAQVVRVTRKAPSRDEPCSSTSRPALEEDVIYHVKYDDYPENGVVQMNSRDVRARARTIIKWQDLEVGQVVMLNYNPDNPKERGFWYDAEISRKRETRTARELYANVVLGDDSLNDCRIIFVDEVFKI
The term Kd denotes the equilibrium constant for the complex coming apart. A high value points to lower affinity. For the molecule B1, the Kd in assay [1] was 3640 nM; in assay [2] it was 300 nM; in assay [3], 640 nM; in assay [4] it was above 9000 nM.

B2: GST-fused Tandem-Tudor domain (TTD) of human UHRF1, residues 126-280, wild type (domain or fragment)
chain: B1 chain
For the molecule B2, the fold preference over the H3K9me2 peptide in assay [5] was above 2 fold.
